The nanobody polyreactivity screen of Harvey et al. (2022)

Assay: yeast display, Sf9 membrane polyspecificity reagent, FACS + sequencing; frameworks hold sequencing errors
How it was run: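 Genes from sorted yeast were amplified by colony PCR, read by MiSeq 2 × 250 sequencing and filtered on CDR length. These cells carried a synthetic nanobody library in Saccharomyces cerevisiae BJ5465 and were sorted by FACS into low and high (top ~1%) gates on anti-HA and streptavidin fluorescence. Polyreactivity is labelled according to the gate of origin.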

Sequence | polyreactivity (PSR sort gate)
QVQLVESGGGLVQAGGSLRLSCAASGFIFYFYAMGWYRQAPWKERELVAAISSGGSTNYADSVKGRFTISRDNAKNTVYLQMISLKPEDTAVYYCARKTSSYFGHYYYWGQGTQVTVSS | low polyreactivity
QVQLVESGGGLVQAGGSLRLSCAASGSTFYIYAMGWYRQAPGKERELVADITWSGGSTYYADSVKGRFTISRDNAKNTVYLQMNSLKPEDTAVYYCATDSWFGLEYWGQCTQVTVSS | high polyreactivity
QVQLVESGGGLDPAGGSLRLSCAASGSTFQYNAKGWYRQAPGKERELVAAISGSGGSTYYADSVKGRFTISRDNAKNTVYLQMNSLKPEDTAVYYCNADVSALWWPEEWYNASEFDYWGQGTQVTVSS | low polyreactivity
QVQLEESGGGLVQAGGSLRLSCAASGSISYNNVMGWYRQAPGKERELVARIRSGGSTYYADSVKGRFTISRDNAKNTVYLLMNSLKQEDTAVYYCAARTKRQAGSYGYWGQGTQVTVSS | high polyreactivity
QVQLVQSGGGLFQAGGSLRLSCAASGRTFWSNAMGWYRQAPGKERELVADITFSGGRTYYADSVKGRFTISRDNAKTSVYLQMNRLKPEDTAVYYCSSSATPSGVGMDYWGQGTQVTVSS | low polyreactivity
QVQLVESGGGLVQAGGSLRLSCAASGITFKWNDMGWYRQAPGKEREFVAAITGSTGSTFYAGSVKGRFTISRDNAKNTVYLQMNSLKPEDTAVYYCAAGPWFYYWGQGTQVTVSS | low polyreactivity
QVQLVESGGGLVQAGGSLRLSCAASGRTLGRYAMGWYRQAPGKERELVAAINVGGGTTHYADSVKGRFTISRDNAKNTVYLQMNSLKPEDTAVYYCAAYRYTYGDRHAYDYWGQGTQVTVSS | low polyreactivity
QVQLVESGGGLVQAGGSLRLSCAASGITFRHNAMGWYRQAPGKERELVAAISRRTYYSDSVKGRFTISRDNAKNTVYLQMNSLKPEDTAVYYCAKDVDYVSDSPYDYWGQGTQVTVSS | low polyreactivity
QVQLVESGGGLVQAGGSLRLSCAASGSTFPYNAMGWYRQAPGKERELLAAISWRGGRTYYADSVKGRFTISRDNAKNTVYLQMNSLKPEYTGVFYCAVVLSTYSYADYDYWGQGTHVTVSS | high polyreactivity
QVQLVETGGGLVQAGGSLRLSCAASGRIFYYYAMGWYRQAPGKERELVAGIDSGDSTNYADSVKGRFTISRDNAKNTVYLQMNSLKPEDTAVYYCAALHYGVYFSYYPYYYWGQGTQVTVSS | low polyreactivity
QVQLVESGGGLVQAGGSLRLSCAASGFIFADNTMGWYRQAPGKERELVGAISRRGGSTYYADSVKGRFTISRDNSKNTVYLQMNSLKPEDTAVYYCAARPFVKHDYWGQGTLVTVSS | high polyreactivity
QVHLVESGGCLVQAGGSLRLSCAASGSIFGDYVMAWYRQAPGKERELVAAITRGGSTYYADSVKGRFTFSRDNAKNTVYLQMNSLKPEDTAVYYCAASYYFVQWGWYYYWGQGTQVTVSS | low polyreactivity
QVQLVESGGGLVQAGGSLRLSCAASGITFYDNVMGWYRQAAGKERELVAAITSGGSTNYADSVKGRFTISRDNAKNTVYLQMNSLKPEDTAVYYCAAQPRVDYEFPYRYGYWGQGTQVTVSS | low polyreactivity
QDQLVESVGGLVQAGGSLRLSCAASGRIVKYAMGWYRQAPGKERELVAAISGSGGTTYYADSVKWRFTISRDNAKNTVYLQMNSQKPEDTAVYYCNKTPRNLRILQHSSQSMDYWGQGTQVTVSS | high polyreactivity
QFQLVESGGGLVQAGGTLRLSCAASGSTFYHYPLGWYRQAPGTVRQLVARITSSSGSTYYADSVKGRFTISRDNAKNTVYLQMYSLKPEDTAVYYCAASYYIVPYLTYGYWGQGTQVTVSS | low polyreactivity
QVQLVESGGGLVQAGGSLRLSCAASGRTFYAYAMGWSRQAPGKERELVAAISWRGGDTYYADSVKGRFTISRDNAKNTVYLQMNSLKPEDTAVYYCAKYLSRQSGDGEYDYWGQGTQVTVSS | low polyreactivity
QVQLVESGGGLVQAGGSLRLSCAATGSTFGYYAMGWYRQSPGKERELVAAISRSGTSTYYADSVKGRFTISRDNAKNTVYLQMISLKPEDTAVYYCIRYGFNSQDYWGQGTQVTVSS | high polyreactivity
